The values that follow come from publication PMC2151650.

This assay concerns the target triadin (rabbit) (UniProt Q28820). The assay is described as follows: co-IP.

triadin (rabbit), sequence (Q28820 whole entry): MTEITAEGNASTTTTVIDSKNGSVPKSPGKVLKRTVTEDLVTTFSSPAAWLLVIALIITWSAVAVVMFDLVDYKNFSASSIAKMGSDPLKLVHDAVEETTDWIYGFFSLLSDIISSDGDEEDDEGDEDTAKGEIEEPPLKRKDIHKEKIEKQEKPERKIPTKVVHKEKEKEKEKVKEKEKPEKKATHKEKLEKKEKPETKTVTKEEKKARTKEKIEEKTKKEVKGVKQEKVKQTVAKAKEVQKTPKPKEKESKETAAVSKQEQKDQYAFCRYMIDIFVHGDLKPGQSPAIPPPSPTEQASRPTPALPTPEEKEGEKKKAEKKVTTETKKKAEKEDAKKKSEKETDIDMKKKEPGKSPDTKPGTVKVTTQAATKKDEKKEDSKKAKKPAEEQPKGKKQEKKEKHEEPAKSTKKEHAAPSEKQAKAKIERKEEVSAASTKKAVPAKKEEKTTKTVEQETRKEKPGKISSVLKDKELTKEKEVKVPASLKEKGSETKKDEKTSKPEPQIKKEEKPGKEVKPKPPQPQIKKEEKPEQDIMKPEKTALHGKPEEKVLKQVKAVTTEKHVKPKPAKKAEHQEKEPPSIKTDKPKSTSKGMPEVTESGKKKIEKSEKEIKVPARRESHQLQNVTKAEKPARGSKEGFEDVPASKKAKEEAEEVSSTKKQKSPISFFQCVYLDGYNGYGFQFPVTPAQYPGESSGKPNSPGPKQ

With “RyR1 D4878A/D4907A, P11716 1-5037 (natural protein)”, the percent reduction in triadin binding against WT RyR1 was determined as 50%.
